Data reported in patent US20160280799A1 (Ablynx, published 2016).

What was measured:
[1] = molecular target: T1, human EGFR on cells (Her-14 mouse fibroblasts expressing human EGFR; A431 cells) (human, UniProt P00533 25-1210); assay: phage ELISA on Her-14 cells (mouse fibroblasts expressing human EGFR) against parental 3T3 cells, about 10^9 phage particles, anti-M13 gpVIII-HRP, OD 405nm
T1 construct: whole, on cells; also called EGF receptor

[2] = molecular target: T2, human MMP-12 catalytic domain (human, UniProt P39900 106-263); assay: binding implied by inhibition in the colorimetric MMP-12 assay; selected on active MMP-12 on nitrocellulose
T2 construct: domain: catalytic domain; also called recombinant human catalytic domain of MMP12; human macrophage elastase
T2 sequence (P39900 106-263 limits assumed): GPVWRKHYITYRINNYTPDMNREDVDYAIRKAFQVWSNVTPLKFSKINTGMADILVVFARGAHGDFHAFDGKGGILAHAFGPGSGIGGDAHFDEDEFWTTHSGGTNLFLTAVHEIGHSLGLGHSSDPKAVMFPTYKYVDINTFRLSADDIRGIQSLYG

[3] = molecular target: T2, human MMP-12 catalytic domain; assay: dot blot: periplasmic extract on 50 ng human MMP-12 catalytic domain on PVDF membrane, anti-c-myc detection
[4] = molecular target: T3, active catalytic domain of MMP 3 (UniProt P08254 100-272); assay: dot blot: periplasmic extract on 50 ng catalytic domain immobilized on Hybond C-extra, anti-c-myc detection
T3 construct: domain: catalytic domain
T3 sequence (P08254 100-272 limits assumed): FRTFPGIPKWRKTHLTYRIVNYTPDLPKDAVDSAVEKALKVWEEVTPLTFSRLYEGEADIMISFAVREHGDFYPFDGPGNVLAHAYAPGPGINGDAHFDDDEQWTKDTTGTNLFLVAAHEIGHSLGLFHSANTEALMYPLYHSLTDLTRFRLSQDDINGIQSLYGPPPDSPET

[5] = molecular target: T4, active catalytic domain of MMP 2 (UniProt P08253 110-450); assay: as above
T4 construct: domain: catalytic domain
T4 sequence (P08253 110-450 limits assumed): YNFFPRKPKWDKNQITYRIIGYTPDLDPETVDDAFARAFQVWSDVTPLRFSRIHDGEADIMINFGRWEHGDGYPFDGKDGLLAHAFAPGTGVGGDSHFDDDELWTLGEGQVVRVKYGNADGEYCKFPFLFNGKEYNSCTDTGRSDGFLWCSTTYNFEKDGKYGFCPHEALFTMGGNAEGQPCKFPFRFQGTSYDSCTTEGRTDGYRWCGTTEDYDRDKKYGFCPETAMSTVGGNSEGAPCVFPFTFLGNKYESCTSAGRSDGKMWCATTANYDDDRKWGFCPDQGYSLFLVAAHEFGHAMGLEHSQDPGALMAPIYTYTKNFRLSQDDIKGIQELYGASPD

[6] = molecular target: T5, active catalytic domain of MMP 7 (UniProt P09237 95-267); assay: as above
T5 construct: domain: catalytic domain
T5 sequence (looked up): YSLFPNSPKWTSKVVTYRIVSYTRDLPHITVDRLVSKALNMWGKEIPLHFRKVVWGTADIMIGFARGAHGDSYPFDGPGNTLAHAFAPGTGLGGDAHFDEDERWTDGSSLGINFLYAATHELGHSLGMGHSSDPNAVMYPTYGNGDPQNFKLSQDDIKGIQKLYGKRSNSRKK

[7] = molecular target: active catalytic domain of MMP 13 (UniProt P45452 104-274); assay: as above
[8] = molecular target: T6, active catalytic domain of MMP 9 (UniProt P14780 107-444); assay: as above
T6 construct: domain: catalytic domain
T6 sequence (P14780 107-444 limits assumed): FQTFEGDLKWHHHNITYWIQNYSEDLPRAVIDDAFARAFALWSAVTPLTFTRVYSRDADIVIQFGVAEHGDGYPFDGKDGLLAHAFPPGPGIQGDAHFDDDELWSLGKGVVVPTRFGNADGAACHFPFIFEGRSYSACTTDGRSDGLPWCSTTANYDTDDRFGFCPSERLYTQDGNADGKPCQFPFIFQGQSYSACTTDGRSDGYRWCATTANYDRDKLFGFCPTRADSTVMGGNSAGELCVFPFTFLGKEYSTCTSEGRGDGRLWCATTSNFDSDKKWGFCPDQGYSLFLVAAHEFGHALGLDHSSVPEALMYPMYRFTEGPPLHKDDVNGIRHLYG

[9] = molecular target: T7, active catalytic domain of MMP 1 (UniProt P03956 100-269); assay: as above
T7 construct: domain: catalytic domain
T7 sequence (looked up): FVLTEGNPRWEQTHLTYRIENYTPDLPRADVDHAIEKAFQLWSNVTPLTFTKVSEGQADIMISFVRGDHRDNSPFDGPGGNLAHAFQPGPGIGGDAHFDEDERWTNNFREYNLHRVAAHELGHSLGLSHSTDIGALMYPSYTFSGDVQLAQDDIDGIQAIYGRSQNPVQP

human TNF-alpha [10] = molecular target: T8, human TNF-alpha (human, UniProt P01375 77-233); assay: ELISA: biotinylated TNFα captured on neutravidin, detection R42; sample treated with pepsin for 60 min at pH 4
T8 construct: also called TNFα; biotinylated TNF-alpha
T8 sequence (P01375 77-233 limits assumed): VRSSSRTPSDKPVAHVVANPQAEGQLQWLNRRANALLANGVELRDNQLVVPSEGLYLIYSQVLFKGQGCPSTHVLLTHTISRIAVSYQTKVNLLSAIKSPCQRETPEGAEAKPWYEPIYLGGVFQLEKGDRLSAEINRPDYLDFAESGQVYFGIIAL

human TNF-alpha [11] = molecular target: T8, human TNF-alpha; assay: ELISA: biotinylated TNFα captured on neutravidin, detection R42; sample treated with pepsin for 60 min at pH 3
human TNF-alpha [12] = molecular target: T8, human TNF-alpha; assay: ELISA: biotinylated TNFα captured on neutravidin, detection R42; sample treated with pepsin for 60 min at pH 2
human TNF-alpha [13] = molecular target: T8, human TNF-alpha; assay: ELISA: biotinylated TNFα captured on neutravidin, detection R42

| Binder | binding result [1] | binding result [3] | binding result [4] | binding result [5] | binding result [6] | binding result [7] | binding result [8] | binding result [9] | further results |
| --- | --- | --- | --- | --- | --- | --- | --- | --- | --- |
| EGFR-F11 (VHH) VHH: QVQLQESGGRLVQAGGSLRLSCAASEHTFRGYAIGWFRQAPGKEREFVSSITYDGTLTNYADSVTGRFTISRDNAKNTVYLQMNSLKPEDTAVYVCAAGYSYRYTTLNQYDSWGQGTQVTVSS | binds |  |  |  |  |  |  |  |  |
| MMP-12 P5-29 (VHH, also called clone P5-29) VHH: QVQLQESGGGLVQAGGSLRLSCAASGRTFTVYTTGWFRQAPGKEREFVAAIDWSGSSTYYTDSVKGRFTISRDNTKNTVYLQMNSLKPEDTAVYYCAARDAIVGVTDTSGYRYWGQGTQVTVSS |  |  |  |  |  |  |  |  | binding result [2]: binds |
| EGFR-4.21 (VHH) VHH: EVQLVESGGGLVQAGGSLRLSCAVSGRTFSSMGWFRQAPGKEREFVATINLSGDRTDYADSVKGRFTISRDNPKNTVYLQMDSLEPEDSAVYYCAGTSLYPSNLRYYTLPGTYADWGQGTQVTVSS | binds |  |  |  |  |  |  |  |  |
| MMP-12 P1-44 (VHH) VHH: QVQLQESGGGLVQPGGSLRLSCAASGFTFNNHWLYWVRQAQGKGLEWVSAINPGGSTVYLDSVKGRFTISRGNTKNTLYLQMNSLKSEDTAVYYCTKAMAWATDWDEYDLWGQGTQVTVSS |  | binds | no binding | no binding | no binding | no binding | no binding | no binding |  |
| MMP-12 P1-1 (VHH) VHH: QVQLQESGGGLVQPGGSLRLSCVASGFTFSDYPMAWVRQAPGKGLEWISVINSGGVNTSYAASVKGRFTISRDNAKNTLFLQMNSLKPEDTAVYYCAKYSLKNEQYWRGQGTQVTVSS |  | binds | no binding | no binding | no binding | no binding | no binding | no binding |  |
| EGFR-1.38 (VHH) VHH: QVQLQDSGGGLVQAGDSLRLSCAASGRSFGGYAMGWFRQAPGKEREFVAAISWSGGSTYYADSLKGRFTISRDNAKNTVYLQMNSLKPEDTALYYCAAGLRPSPNYNHERSYDYWGQGTQVTVSS | binds |  |  |  |  |  |  |  |  |
| EGFR-IIIa5 (VHH) VHH: EVQLVESGGGLVQAGGSLRLSCTASGRTFSSYAMGWFRQTPGKEREFVAAITSSGGSTYYADSVKGRFTISRDNAKSTMYLQMDSLMLDDTSVYYCAADSSRPQYSDSALRRILSLSNSYPYWGQGTQVTVSS | binds |  |  |  |  |  |  |  |  |
| EGFR-B11 (VHH) VHH: QVQLQDSGGGLVQAGGSLRLSCAASRFSSAQYAIGWFRQAPGKEREGVSYITFSGGPTGYADSVKGRFTVSRDNAKNTVYLQMNSLKPEDTAVYYCAARPYTRPGSMWVSSLYDNWGQGTQVTVSS | binds |  |  |  |  |  |  |  |  |
| MMP-12 P1-41 (VHH) VHH: QVQLQDSGGGLVRTGDSLRLSCVVFGGTISTYAMGWFRRAPGKEREFVAAIDASGGFTEYADSVRGRFRIARDNPLSAVYLQMNSLKPEDTAFYYCAADKDRDTVVRFTTTPNEYDYWGQGTQVTVSS |  | binds | no binding | no binding | no binding | no binding | no binding | no binding |  |
| MMP-12 P1-26 (VHH) VHH: QVQLQESGGGLVRAGGSLRLSCVASGRTLSKYRMGWFRQFPGKERELVAEIEWKSSSTWYRDSVKGRFTISRDNAKNTVYLRMNSLKPEDTAVYYCAAATLGEPLVKYTYWGQGTQVTVSS |  | binds | no binding | no binding | no binding | no binding | no binding | no binding |  |
| VHH#3E-His tag (VHH, also called TNF3E; VHH TNF3E) VHH: QVQLQESGGGLVQPGGSLRLSCAASGRTFSDHSGYTYTIGWFRQAPKEREFVARIYWSSGNTYYADSVKGRFAISRDIAKNTVDLTMNNLEPEDTAVYYCAARDGIPTSRSVESYNYWGQGTQVTVSS |  |  |  |  |  |  |  |  | EC50 (read off the curve) (human TNF-alpha [10]): ~0.009 µg/mL; EC50 (read off the curve) (human TNF-alpha [11]): ~0.01 µg/mL; EC50 (read off the curve) (human TNF-alpha [12]): ~0.03 µg/mL; EC50 (read off the curve) (human TNF-alpha [13]): ~0.02 µg/mL |
